# Data taken from article PMC5473857.
# B1: FtsA-R286W (FtsA*) from E. coli (natural protein)
# chain: MIKATDRKLVVGLEIGTAKVAALVGEVLPDGMVNIIGVGSCPSRGMDKGGVNDLESVVKCVQRAIDQAELMADCQISSVYLALSGKHISCQNEIGMVPISEEEVTQEDVENVVHTAKSVRVRDEHRVLHVIPQEYAIDYQEGIKNPVGLSGVRMQAKVHLITCHNDMAKNIVKAVERCGLKVDQLIFAGLASSYSVLTEDERELGVCVVDIGGGTMDIAVYTGGALRHTKVIPYAGNVVTSDIAYAFGTPPSDAEAIKVRHGCALGSIVGKDESVEVPSVGGRPPWSLQRQTLAEVIEPRYTELLNLVNEEILQLQEKLRQQGVKHHLAAGIVLTGGAAQIEGLAACAQRVFHTQVRIGAPLNITGLTDYAQEPYYSTAVGLLHYGKESHLNGEAEVEKRVTASVGSWIKRLNSWLRKEF
# Target: FtsZ-F268C labeled with fluorescein 5-maleimide (donor) or tetramethylrhodamine 5-maleimide (acceptor) (E. coli) (UniProt P0A9A6)
binder,measurement,value
B1,"FRET assay of subunit exchange of FtsZ protofilaments at steady state with FtsA*, pH 6.5: reaction time τ (13.1 s for FtsZ alone)",38 s
